B1: IRAK-4 (protein)
chain: MNKPITPSTYVRCLNVGLIRKLSDFIDPQEGWKKLAVAIKKPSGDDRYNQFHIRRFEALLQTGKSPTSELLFDWGTTNCTVGDLVDLLIQNEFFAPASLLLPDAVPKTANTLPSKEAITVQQKQMPFCDKDRTLMTPVQNLEQSYMPPDSSSPENKSLEVSDTRFHSFSFYELKNVTNNFDERPISVGGNKMGEGGFGVVYKGYVNNTTVAVKKLAAMVDITTEELKQQFDQEIKVMAKCQHENLVELLGFSSDGDDLCLVYVYMPNGSLLDRLSCLDGTPPLSWHMRCKIAQGAANGINFLHENHHIHRDIKSANILLDEAFTAKISDFGLARASEKFAQTVMTSRIVGTTAYMAPEALRGEITPKSDIYSFGVVLLEIITGLPAVDEHREPQLLLDIKEEIEDEEKTIEDYIDKKMNDADSTSVEAMYSVASQCLHEKKNKRPDIKKVQQLLQEMTAS
- in vitro phosphorylation of IRAK-1KD induced by IRAK-4 co-expression (E-MyD88S): in vitro phosphorylation of IRAK-1KD induced by IRAK-4 co-expression was completely inhibited when MyD88S was co-expressed
- IRAK-4-induced IRAK-1KD phosphorylation (slower migrating species in SDS-PAGE; in vitro kinase assay) (MyD88): Addition of MyD88, however, significantly enhanced IRAK-4-induced IRAK-1KD phosphorylation

Chain of E-MyD88S (chain, as listed by the source): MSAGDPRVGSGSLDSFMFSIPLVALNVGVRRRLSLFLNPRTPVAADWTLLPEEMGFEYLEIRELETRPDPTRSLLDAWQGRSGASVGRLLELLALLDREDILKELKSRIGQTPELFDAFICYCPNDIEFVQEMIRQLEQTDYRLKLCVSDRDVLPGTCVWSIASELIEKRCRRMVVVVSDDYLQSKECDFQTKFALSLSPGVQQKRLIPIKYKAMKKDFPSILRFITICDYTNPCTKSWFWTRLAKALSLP
